This is an account of results in patent publication US20210000895A1 (RHODE ISLAND HOSPITAL, published 2021).

The experiment concerns the target CD4 receptor on primary human CD4+ T lymphocytes (human, UniProt P01730 26-458). The experiment can be described thus: cell-based or functional assay.

B1: IL-16/Lamp2b fusion protein (Interleukin (IL)-16 C-terminal 20 amino acid domain fused to the N-terminus of lysosome-associated membrane protein 2 variant b), … (other)
chain: GNSTMGSGTIVIRRKSLQSKETTAAGDSGSGSGSGGSSLELNLTDSENATCLYAKWQMNFTVRYETTNKTYKTVTISDHGTVTYNGSICGDDQNGPKIAVQFGPGFSWIANFTKAASTYSIDSVSFSYNTGDNTTFPDAEDKGILTVDELLAIRIPLNDLFRCNSLSTLEKNDVVQHYWDVLVQAFVQNGTVSTNEFLCDKDKTSTVAPTIHTTVPSPTTTPTPKEKPEAGTYSVNNGNDTCLLATMGLQLNITQDKVASVININPNTTHSTGSCRSHTALLRLNSSTIKYLDFVFAVKNENRFYLKEVNISMYLVNGSVFSIANNNLSYWDAPLGSSYMCNKEQTVSVSGAFQINTFDLRVQPFNVTQGKYSTAQECSLDDDTILIPIIVGAGLSGLIIVIVIAYVIGRRKSYAGYQTLGSGYPYDVPDYA
Turning to B1, the “Tat protein delivery to rCD4+T lymphocytes (Western blot of intracellular Tat), EXO^CD4-Tat exosomes compared to EXO-Tat exosomes” value is 20 fold.
